3 substances from US5039791A, “Peptide fragments of tissue plasminogen activator” (Monsanto Company, priority 1989, dated 1991) can be followed below.

Where no end group is shown, it is not given here.

The assay has as its target T1, PAI-1 (Homo sapiens, UniProt P05121).
T1 construct: purchased American Diagnostica, Inc
The assay is described as follows: PAI-1 inhibition studies: protection of tPA from inactivation by PAI-1, residual tPA enzymatic activity by indirect amidolytic assay. It counts as biochemical. Particulars: 1.5 μg/ml PAI-1, 50 ng/ml tPA; for maintenance of tPA activity in the presence of PAI-1 (FIG. 1): 100 μg/ml peptide, one hour at 37° C.; for effect of peptide concentration on the maintenance of tPA activity in the presence of PAI-1 (FIG. 2): several peptide concentrations (30-120 μg/ml). As for the experimental part:
In each case, peptide and PAI-1 were first mixed, followed by the addition of tPA. Final concentrations were: 100 μg/ml peptide, 1.5 μg/ml PAI-1 and 50 ng/ml tPA in phospate buffered saline containing 0.01% sodium azide and 0.01% Tween 80%. After incubation for one hour at 37° C., samples were examined for remaining tPA enzymatic activity. The error bars represent the range of duplicate measurements of the tPA enzymatic activity in μAU/min/min.
Results are expressed as the percentage of tPA enzymatic activity remaining after incubation with tPA, PAI-1 and peptide relative to that seen with tPA alone.
An indirect amidolytic assay for tPA activity was performed by a conventional method as described by Ranby and Wallen, Prog. Fibrinolytics 5, 233-235 (1981) and Ranby, Biochim. Biophys. Acta 740, 461-469 (1982) but with the following modifications. The assay mixture contained 50 μg/ml human glu-plasminogen, 1 mM plasmin substrate S-2251, 130 μg/ml fibrinogen fragment stimulator, and 0 to 20 ng/ml tPA sample in phosphate-buffered saline containing 0.01% sodium azide and 0.01% Tween 80 (PBSAT) in a final volume of 100 μl. The assay was performed in a 96-well microtitration plate at room temperature. Reaction mixtures were overlaid with 50 μl mineral oil to prevent evaporation. Periodic readings were taken at 405 nm and referenced at 650 nm using a Molecular Devices Vmax plate reader. The first derivative of absorbance with respect to time was calculated and the slope of a plot of dA/dt vs time was proportional to tPA activity. Results were expressed in absorbance units (μ AU/min^2) or as a percentage of control.
The effect of peptides on the inactivation of tPA by PAI-1 was measured by incubating 1.5 μg/ml PAI-1, 30-120 μg/ml peptide and 50 ng/ml tPA in PBSAT. PAI-1 and peptide were first mixed, followed by the addition of tPA. After one hour at 37° C., residual tPA enzymatic activity was measured either immediately or after the samples had been frozen and stored.
tPA was incubated with increasing concentrations of PAI-1 for one hour at 37° C. and the incubate was then assayed for residual tPA enzymatic activity.

T1 sequence (P05121 24-402): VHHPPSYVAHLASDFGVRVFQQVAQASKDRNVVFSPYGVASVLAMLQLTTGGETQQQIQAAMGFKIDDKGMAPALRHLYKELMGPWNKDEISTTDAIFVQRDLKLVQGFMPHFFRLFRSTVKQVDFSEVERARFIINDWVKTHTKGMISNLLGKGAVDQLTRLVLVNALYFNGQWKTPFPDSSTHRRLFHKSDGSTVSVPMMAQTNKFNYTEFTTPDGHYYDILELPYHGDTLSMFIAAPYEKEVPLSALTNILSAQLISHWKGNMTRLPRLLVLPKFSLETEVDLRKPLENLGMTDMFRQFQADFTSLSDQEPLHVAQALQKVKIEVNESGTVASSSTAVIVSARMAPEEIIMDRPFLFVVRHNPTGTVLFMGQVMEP

For “VPVKSCSEPRCFNGGTCQQALYFSD-amide (VPVKSCSEPRCFNGGTCQQALYFSD-NH2; cysteine pairing not given here) [Peptide 148, 25 amino acid synthetic peptide amide fragment of native human tPA]”, the “maintenance of tPA activity in the presence of PAI-1 (FIG. 1)” value (from here on “maintenance of tPA activity … (FIG. 1)”) is “especially effective at maintaining tPA activity”; the “effect of peptide concentration on the maintenance of tPA activity in the presence of PAI-1 (FIG. 2)” value (“effect of peptide concentration” for short) was “rose dramatically and plateaued”.

Take “LGKHNYCRNPDGDAKPWCHVLKNRR-amide (LGKHNYCRNPDGDAKPWCHVLKNRR-NH2; cysteine pairing not given here) [Peptide 166, 25 amino acid synthetic peptide amide fragment of native human tPA]”: the “maintenance of tPA activity … (FIG. 1)” value was “no effect” and the “effect of peptide concentration” value is “no effect”.

With “NPDRDSKPWCYVFKAGKYSSEFCST-amide (NPDRDSKPWCYVFKAGKYSSEFCST-NH2; cysteine pairing not given here) [Peptide 158, 25 amino acid synthetic peptide amide fragment of native human tPA]”, the “maintenance of tPA activity … (FIG. 1)” value is reported as “active but with a lesser effect” and the “effect of peptide concentration” value is “steady, progressive increase in activity”.
